Source: PMC6186785, “Discovery of Bacterial Deaminases That Convert 5-Fluoroisocytosine Into 5-Fluorouracil” (Frontiers in Microbiology, 2018)

What was measured:
Test in all cases: purified protein
purified protein [1] = substrate: Nc1nccc(O)n1; conditions: 50 mM Tris-HCl pH 8.0, 21 °C, substrate range 5–700 μM
purified protein [2] = substrate: Nc1ncc(F)c(=O)[nH]1; assay type: biochemical, uncultured Hafnia sp.; conditions: 50 mM Tris-HCl pH 8.0, 21 °C
purified protein [3] = substrate: Nc1ncc(F)c(=O)[nH]1; assay type: biochemical, uncultured Pseudomonas sp.; conditions: 50 mM Tris-HCl pH 8.0, 21 °C, sentence prints 'isocytosine', evident slip for 5-fluoroisocytosine (second URA3 set, after Vcz 5-fluoroisocytosine)

B1: Vcz deaminase (uncultured Hafnia sp.; H2D) (protein)
chain: MDKRTLLFKNAELLVTMDDERREIRGGCLLVEGNRIVAVGGDELCAAPADEEIDLRGHIVIPGLINTHHHMFQSLTRVIPDAQDGELFDWLNNLYPIWAGLTPEMIRISTQTAMAELMLSGCTTSSDHLYVYPNGCRLDDSIDGAREIGMRFHACRGSMSVGRSKGGLPPDELVENEQAILEDSLRLIHSYHDAQRYSMLRIALAPCSPFSVSRELMVKTAQMAREQGVSLHTHLAENDSDVSYSQTHFGMTPAQYAEDLGWVGSDVWHAHCVKLDRAGISLFARTGTGVAHCPCSNMRLASGIAPIRAMLDEGVSVGLGVDGSASNDAGNMIAETRQAMLLQRVGFGPDAMNARQALEIATRGGAKVLNRDDIGYLATGMAADFVAFDLNTLNLAGAKHDPLAALVFCTPGNVAFSVINGQVVIREGVLQTIDLPSVVQQHNRLACLLVNRHRL
notes: full-length ORF, C-terminal 6xHis (pET28a NcoI/XhoI), E. coli BL21(DE3); primers encode N-terminus MDKRTL and C-terminus NRHRL before LE-tag
Protein B1 has a Km (purified protein [1]) of 1860 ± 45 µM, a kcat (purified protein [1]) of 1.64 ± 0.06 s⁻¹ and a Km (purified protein [2]) of 1270 ± 128 µM. It also gave a kcat (purified protein [2]) of 0.1 ± 0.007 s⁻¹.

B2: URA3 deaminase (uncultured Pseudomonas sp.) (protein)
chain: MAKTLLVKNAELLVTMDGQRREIRQGGMFIEDNRIVQVGPAAELPQTADEVLDLKGKVVIPGLVNTHHHMYQSLTRVVPAAQDGELFNWLTNLYPIWARLTPEMIQVSTQTAMAELILSGCTTSSDHLYIYPNGCKLDDSIHAAGEIGMRFHAARGSMSVGRSQGGLPPDSVVEKEADILKESQRLIEDYHDAAHGSMLRVVVAPCSPFSVSRDLMREAAVLARNYGVSLHTHLAENVNDIAYSREKFGMTPAEYAEDLGWVGHDVWHAHCVQLDEHGIELFARTGTGVAHCPCSNMRLASGIAPVRRMRDAGVPVGLGVDGSASNDGASMIGEVRQALLLQRVGFGPDAMTAREALEIATLGGAKVLNRDDIGALAPGMVADFVAFDLNHIAYAGALHDPLAALVFCTPTHVSTSVINGKVVVRDGQLVTVDLPRVLERHNQLARQLVMGE
notes: full-length ORF, C-terminal 6xHis (pET21b NdeI/XhoI), E. coli BL21(DE3); primers encode N-terminus MAKTLL and C-terminus VMGE before LE-tag
For B2, the Km (purified protein [1]) was 1085 ± 120 µM, the kcat (purified protein [1]) was 2.00 ± 0.15 s⁻¹ and the Km (purified protein [3]) was 1330 ± 305 µM. The kcat (purified protein [3]) was 0.02 ± 0.003 s⁻¹.
